Data on 1 sequence can be found in paper PMC5021340.

The target of this data set is Mig1 (Xanthophyllomyces dendrorhous) (UniProt A0A1C9UL02). The data set is described as follows: EMSA. Particulars: 20 mM HEPES pH 7.9, 50 mM KCl, 1 mM DTT, 0.1 mM EDTA, 5% glycerol (+2.5%), 200 ug/ml BSA, 50 ng/ul poly(dI-dC), 0.05% NP-40, 20 fmol DNA, 10 ug Mig1 in 20 ul ….
Sequence of Mig1 (Xanthophyllomyces dendrorhous) (A0A1C9UL02 entry or part of it): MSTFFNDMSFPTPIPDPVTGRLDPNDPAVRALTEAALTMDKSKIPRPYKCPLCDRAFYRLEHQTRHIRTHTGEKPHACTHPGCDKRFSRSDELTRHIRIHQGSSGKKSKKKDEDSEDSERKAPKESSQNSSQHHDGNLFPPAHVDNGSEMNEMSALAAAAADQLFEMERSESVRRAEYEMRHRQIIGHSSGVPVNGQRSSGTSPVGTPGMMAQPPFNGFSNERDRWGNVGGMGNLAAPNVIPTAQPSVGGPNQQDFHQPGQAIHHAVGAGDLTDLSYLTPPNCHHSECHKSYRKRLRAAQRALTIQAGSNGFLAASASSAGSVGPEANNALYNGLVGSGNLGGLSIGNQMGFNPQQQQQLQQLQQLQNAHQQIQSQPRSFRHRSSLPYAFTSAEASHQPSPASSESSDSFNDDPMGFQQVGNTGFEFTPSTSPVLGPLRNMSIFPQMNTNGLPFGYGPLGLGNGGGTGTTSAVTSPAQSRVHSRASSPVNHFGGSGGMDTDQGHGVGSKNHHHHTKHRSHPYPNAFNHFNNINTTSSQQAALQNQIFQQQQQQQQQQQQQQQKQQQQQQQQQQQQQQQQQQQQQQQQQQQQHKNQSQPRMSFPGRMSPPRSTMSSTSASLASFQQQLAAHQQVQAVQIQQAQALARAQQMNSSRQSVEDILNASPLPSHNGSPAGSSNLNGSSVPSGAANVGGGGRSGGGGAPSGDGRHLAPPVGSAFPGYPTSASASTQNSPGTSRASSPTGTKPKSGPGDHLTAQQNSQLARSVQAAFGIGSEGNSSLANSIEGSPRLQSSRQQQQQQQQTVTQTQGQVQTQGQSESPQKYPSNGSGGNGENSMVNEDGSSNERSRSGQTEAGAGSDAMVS

Regarding “GAAGATGATGCGGCGGCAACTGGTTCTGGGCTGGGGAACACCCTATTCGACCGGTTGAATGAGTCACAATCGGCCGGCAGCCCTGCTGCAGGCACCGGCGCAAGTGGCTCCGGACCGAAGCCTCGCCAGCAGTTGATCAAGCGAACCAAGCCGAACAATCCTGGCGCGCCTGGAGGAGCGGGAGCGGGAGGAGCAGCAGGTGATGCATC (double strand) [crtS promoter boxes C-D 209 bp]”, the binding entry was “binds”.
